For 12 molecules, EC50 results are on record in US20220098307A1 (WUHAN YZY BIOPHARMA, published 2022).

Substitutions are numbered along the chain they refer to. Names and notes keep the numbering of the source.

In general, EC50 refers to the midpoint of the concentration-response curve.

The labels stand for the following.
B1: M1IC-G2-1 (bispecific antibody, human IgG1, kappa)
chain: QVQLVESGGGVVQPGRSLRLSCAASGFTFSTYAMNWVRQAPGKGLEWVARIRSKYNNYATYYADSVKDRFTISRDDSKNTLYLQMNSLRAEDTAVYYCARHGNFGNSYVSWFAYWGQGTLVTVSSGGGGSGGGGSGGGGSQTVVTQEPSLTVSPGGTVTLTCRSSTGAVTTSNYANWVQQKPGQAPRGLIGGTNKRAPGVPARFSGSLLGGKAALTLSGVQPEDEAEYYCALWYSNLWVFGGGTKVEIKGGGGSDKTHTCPPCPAPPVAGPSVFLFPPKPKDTLMISRTPEVTCVVVDVSHEDPEVQFNWYVDGVEVHNAKTKPREEQFNSTFRVVSVLTVVHQDWLNGKEYKCKVSNKGLPAPIEKTISKTKGQPREPQVCTLPPSRDELTKNQVSLSCAVKGFYPSDIAVEWESNGQPENNYKTTPPVLDSDGSFFLVSKLTVDKSRWQQGNVFSCSVMHEALHNHYTQKSLSLSPGK
heavy: EVKLDETGGGLVQPGRPMKLSCVASGFTFSDYWMNWVRQSPEKGLEWVAQIRNKPYNYETYYSDSVKGRFTISRDDSKSSVYLQMNNLRVEDMGIYYCTGSYYGMDYWGQGTSVTVSSASTKGPSVFPLAPSSKSTSGGTAALGCLVKDYFPEPVTVSWNSGALTSGVHTFPAVLQSSGLYSLSSVVTVPSSSLGTQTYICNVNHKPSNTKVDKKVEPKSCDKTHTCPPCPAPPVAGPSVFLFPPKPKDTLMISRTPEVTCVVVDVSHEDPEVQFNWYVDGVEVHNAKTKPREEQFNSTFRVVSVLTVVHQDWLNGKEYKCKVSNKGLPAPIEKTISKTKGQPREPQVYTLPPCRDELTKNQVSLWCLVKGFYPSDIAVEWESNGQPENNYKTTPPVLDSDGSFFLYSKLTVDKSRWQQGNVFSCSVMHEALHNHYTQKSLSLSPGK
light: DVVMTQTPLSLPVSLGDQASISCRSSQSLVHSNGNTYLRWYLQKPGQSPKVLIYKVSNRFSGVPDRFSGSGSGTDFTLKISRVEAEDLGVYFCSQSTHVPWTFGGGTKLEIKRTVAAPSVFIFPPSDEQLKSGTASVVCLLNNFYPREAKVQWKVDNALQSGNSQESVTEQDSKDSTYSLSSTLTLSKADYEKHKVYACEVTHQGLSSPVTKSFNRGEC
notes: structure 1 isotype control; CH2 G2CH2
B2: PDL1-M1-G2 (bispecific antibody)
chain: B1 chain with G250R, G252R
heavy: not shown
light: not shown
notes: structure 1; PD-L1 x CD3; CH2 G2CH2
B3: M1IC-G2D-1 (bispecific antibody, human IgG1, kappa)
chain: B1 chain with D303A
heavy: B1 heavy with D270A
light: B1 light
notes: structure 1 isotype control; CH2 G2DCH2
B4: PDL1-M1-SG2 (bispecific antibody)
chain: B1 chain with G250R, G252R, C263S
heavy: not shown
light: not shown
notes: structure 1; PD-L1 x CD3; CH2 SG2CH2
B5: M1IC-SG2-1 (bispecific antibody, human IgG1, kappa)
chain: B1 chain with C263S
heavy: B1 heavy with C230S
light: B1 light
notes: structure 1 isotype control; CH2 SG2CH2
B6: M1IC-GG2-1 (bispecific antibody, human IgG1, kappa)
chain: B1 chain with C263G
heavy: B1 heavy with C230G
light: B1 light
notes: structure 1 isotype control; CH2 GG2CH2
B7: M1IC-PG2-1 (bispecific antibody, human IgG1, kappa)
chain: B1 chain with C263P
heavy: B1 heavy with C230P
light: B1 light
notes: structure 1 isotype control; CH2 PG2CH2
B8: M1IC-DG2-1 (bispecific antibody, human IgG1, kappa)
chain: B1 chain with D298A
heavy: B1 heavy with D265A
light: B1 light
notes: structure 1 isotype control; CH2 DG2CH2; also called MlIC-DG2-1
B9: M1IC-DG2D-1 (bispecific antibody, human IgG1, kappa)
chain: B1 chain with D298A, D303A
heavy: B1 heavy with D265A, D270A
light: B1 light
notes: structure 1 isotype control; CH2 DG2DCH2
B10: M1IC-AG2-1 (bispecific antibody, human IgG1, kappa)
chain: B1 chain with C263A
heavy: B1 heavy with C230A
light: B1 light
notes: structure 1 isotype control; CH2 AG2CH2
B11: PDL1-M1-FES (bispecific antibody)
chain: QVQLVESGGGVVQPGRSLRLSCAASGFTFSTYAMNWVRQAPGKGLEWVARIRSKYNNYATYYADSVKDRFTISRDDSKNTLYLQMNSLRAEDTAVYYCARHGNFGNSYVSWFAYWGQGTLVTVSSGGGGSGGGGSGGGGSQTVVTQEPSLTVSPGGTVTLTCRSSTGAVTTSNYANWVQQKPGQAPRGLIGGTNKRAPGVPARFSGSLLGGKAALTLSGVQPEDEAEYYCALWYSNLWVFGGGTKVEIKRGRGSDKTHTCPPCPAPEFEGGPSVFLFPPKPKDTLMISRTPEVTCVVVDVSHEDPEVKFNWYVDGVEVHNAKTKPREEQYNSTYRVVSVLTVLHQDWLNGKEYKCKVSNKALPASIEKTISKAKGQPREPQVCTLPPSRDELTKNQVSLSCAVKGFYPSDIAVEWESNGQPENNYKTTPPVLDSDGSFFLVSKLTVDKSRWQQGNVFSCSVMHEALHNHYTQKSLSLSPGK
heavy: not shown
light: not shown
notes: structure 1; PD-L1 x CD3; CH2 FES
B12: PDL1-M1-LALA (bispecific antibody)
chain: B11 chain with F268A, E269A, S365P
heavy: not shown
light: not shown
notes: structure 1; PD-L1 x CD3; CH2 LALA

The target in one experiment is T1, Monkey CD3 (monkey).
T1 construct: whole, on cells; also called CD3 of monkey CD3 positive T cells
Nature of the experiment: flow cytometry, monkey T cells. Background: In flow cytometry, cells or beads pass a laser one at a time.
Molecule B1 registered an EC50 of 0.165 µM.

Turning to B2, the EC50 was 0.239 µM.

In turn, B3 yielded an EC50 of 0.143 µM.

B4 showed an EC50 of 0.194 µM.

Take B5: the EC50 worked out at 0.222 µM.

B6 returned an EC50 of 0.166 µM.

With B7, it took 0.146 µM to reach a half-maximal effect (EC50).

The molecule B8 returned an EC50 of 0.13 µM.

Molecule B9 yielded an EC50 of 0.181 µM.

Regarding B10, the response was half-maximal at 0.197 µM (EC50).

Regarding B11, the response was half-maximal at 0.207 µM (EC50).

The molecule B12 registered an EC50 of 0.196 µM.

The target in a further experiment is T2, Human CD3ε (human, UniProt P07766 23-126).
T2 construct: CD3 on T cells isolated from human whole blood
Kind of experiment: flow cytometry, human T cells. The text has this:
1) Cell preparation: T cells isolated from CD3-positive human whole blood were used for a CD3 end affinity detection of multifunctional antibody molecule; positive tumor cells of corresponding antigen were used for detecting affinity of tumor antigen; for example, CD38-positive MM. 1S cells (purchased from the Cell Resource Center of Shanghai Institutes for Biological Sciences, Chinese Academy of Sciences) or RPMI 8226 cells (purchased from the Cell Resource Center of Shanghai Institutes for Biological Sciences, Chinese Academy of Sciences) were used for CD38 antigen detection, and PD-L1 positive H358 cells (purchased from the Cell Resource Center of Shanghai Institutes for Biological Sciences, Chinese Academy of Sciences) were used for PD-L1 antigen detection, and so on. The cells were resuspended with 1% FBS-PBS, adjusted to a density of 4×10⁶/ml, and 50 μl of cells were taken from each well, and then plated at 2×10⁵ per well. Cell plating was operated on ice
2) Addition of the antibody: according to the experimental design, the antibody was diluted gradually, and dilution of antibody was operated on ice. For example, the initial concentration of antibody for dilution was 3000 nM, and the antibody was diluted by 3 times with 11 concentration gradients. The diluted antibody was added to a cell well at 50 μl per well, mixed well, and shaked and incubated at 4° C. 1100 rpm/min for 2 h; after washing, the cells were resuspend in 1% FBS-PBS, and a diluted secondary antibody PE anti-human IgG FC (Biolegend, 409304) was added with a final concentration of 8 ug/ml and a volume of 50 μl/well. At the same time, a well only added with cells and secondary antibody was set as a control, the components were mixed well, and incubated under shaking at 1100 rpm/min at 4° C. for 1 h;
5) Data analysis: the data was analyzed by a flow analysis software FlowJo 7.6 thereby obtaining an average fluorescence intensity of the specific antibody concentration, plotted by a Graphpad Prism 5 with the antibody concentration (nM) as an abscissa and the average fluorescence intensity as an ordinate; the EC50 value was calculated by the method of One site—Specific binding, and the EC50 value indicated the cell affinity of the antibody to the corresponding target antigen.
For the molecule B1, the EC50 is 0.127 µM.

On to B2, for which the EC50 was 0.191 µM.

B3 showed an EC50 of 0.101 µM.

Consider B4, for which the EC50 was 0.177 µM.

In turn, B5 showed an EC50 of 0.122 µM.

B6 showed an EC50 of 0.168 µM.

B7 gave an EC50 of 0.116 µM.

B8 registered a 50% effective concentration (EC50) of 0.12 µM.

For the molecule B9, a half-maximal effect (EC50) was put at 0.128 µM.

B10 gave an EC50 of 0.163 µM.

With B11, the EC50 came to 0.2 µM.

As to B12, the EC50 was 0.153 µM.
